Laboratory results from article doi:10.1101/2020.04.01.839274 (bioRxiv, 2020).

B1: endogenous EXOSC3 (natural protein, mouse (endogenous in Neuro-2a), UniProt Q7TQK4 1-274, looked up)
chain: MAEVLSAGPESVAGCRARAVHKVLNQVVLPGEELVLPDHEDVDGLGGAGEQPLRLNAGARPRLRVVCGPGLRRCGDRLLVTKCGRLRHKEPSGGGGGVYWVDSQQKRYVPVKGDHVIGIVIAKSGDIFKVDVGGSEPASLSYLAFEGATKRNRPNVQVGDLIYGQCVVANKDMEPEMVCIDSCGRANGMGVIGQDGLLFKVTLGLIRKLLAPDCEIVQELGKLYPLEIVFGMNGRIWVKAKTIQQTLILANVLEACEHMTTEQRKQIFARLAES
B2: endogenous EXOSC9 (natural protein, mouse (endogenous in Neuro-2a), UniProt Q9JHI7 1-438, looked up)
chain: MKETPLSNCERRFLLRAIEEKKRLDGRQTYDYRNIRISFGTDYGCCIVELGKTRVLGQVSCELVSPKLNRATEGILFFNLELSQMAAPAFEPGRQSDLLVKLNRLLERCLRNSKCIDTESLCVVAGEKVWQIRVDLHLLNHDGNIIDAASIAAIVALCHFRRPDVSVQGEEVTLYTPEERDPVPLSIHHMPICVSFAFFQQGTYLLVDPNEREERVMDGLLVIAMNKHREICTIQSSGGIMLLKDQVFRCSKIAGVKVAEITELIQKALENDQRVRKEGGKFGFAESIANQRITAFKMETAPIDTSNIEERAEEIIAEAEPPPEVVSQPVLWTPGTAQIGDGIENSWGDLEDSEKEEEEEEGGIDEAVILDDTKMDTGEVSDIGSQGAPIVLSDSEEEEMIILEPEKNPKKIRAQTSANQKAPSKGQGKRKKKKRTAN
B3: endogenous EXOSC10 (natural protein, mouse (endogenous in Neuro-2a), UniProt P56960 1-887, looked up)
chain: MAPPSPREHQSAPATSATKPDAEMVLPGFPDADSFVKFALGSVVAVTKASGGLPQFGDEYDFYRSFPAFQAFCETQGDRLLQCMSRVMQYHGCRSNIKDRSKVTELEDKFDLLVDTNDVILERVGMLLDEASGVNKHQQPVLPAGLQVPKTIVSSWNRKAGEYGKKAKSETFRLLHAKNIVRPQLRFREKIDNSNTPFLPKIFVKPNARKPLPLALSKERRERPQDRPEDLDVPPALADFIHQQRTQQVEQDMFAHPYQYELDHFTPPQSVLQRPKPQLYRAVGETPCHLVSSLDELVELNEKLLGCQEFAVDLEHHSYRSFLGLTCLMQISTRTEDFIVDTLELRSDMYILNESLTDPAIVKVFHGADSDIEWLQKDFGLYVVNMFDTHQAARLLNLARHSLDHLLRLYCGVESNKQYQLADWRIRPLPEEMLSYARDDTHYLLYIYDRMRLELWERGNHQPVQLQVVWQRSRDICLKKFVKPIFTDESYLELYRKQKKHLNSQQLTAFQLLFAWRDKTARREDESYGYVLPNHMMLKIAEELPKEPQGIIACCNPVPPLVRQQINEMHLLIQQAREMPLLKSENAAGVRKSGPLPSAERLENDLFGPHDCSHAPPDNYQNTSTDGTLPLQKQPSLFTEGKEETSVDAGCLLATAVITLFSEPNTEEGGKTPLTVAQKKAQNIMQSFENPFRMFLPSLEHKAHISQAAKFDPSSKIYEISNRWKLASQVQVQKEPKEATKKKVAEQTAAREEAKEEAAAGVLEQAIPVRQQAALENATKKRERATSDLRTIEQKQEKKRLKSSKKAKDPDPPGKDFSPYDYSQSDFRAFAGDSKSKPSSQFDPNKLAPSGKKGVGAKKCKQSVGNKSMSFAVGKSDRGFRHNWPKR

Target: Myc-tagged mouse EXOSC5 p.Thr114Ile (mouse, UniProt Q9CRA8 1-235, T114I)
Experiment: co-IP

Myc-tagged mouse EXOSC5 p.Thr114Ile, sequence (Q9CRA8 whole entry T114I): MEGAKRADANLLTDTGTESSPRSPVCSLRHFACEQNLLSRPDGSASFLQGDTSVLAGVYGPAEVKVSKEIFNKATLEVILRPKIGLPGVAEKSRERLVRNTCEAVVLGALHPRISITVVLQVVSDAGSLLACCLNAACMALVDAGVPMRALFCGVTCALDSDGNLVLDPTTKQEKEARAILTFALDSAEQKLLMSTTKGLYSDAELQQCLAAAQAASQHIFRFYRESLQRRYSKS

Row | Binder | % EXOSC subunit bound relative to wild-type EXOSC5
1 | B1 | 28%
2 | B2 | 24%
3 | B3 | 40%

Target: Myc-tagged mouse EXOSC5 p.Leu206His (mouse, UniProt Q9CRA8 1-235, L206H)
Experiment: co-IP

Myc-tagged mouse EXOSC5 p.Leu206His, sequence (Q9CRA8 whole entry L206H): as the sequence (Q9CRA8 whole entry T114I) above, with I114T, L206H counted along it

Row | Binder | % EXOSC subunit bound relative to wild-type EXOSC5
4 | B1 | 9%
5 | B2 | 16%
6 | B3 | 21%
